Assay results reported in patent US20210292396A1.
Where a chain is given by its changes, count along the chain named.

How the values were obtained:
Experiment in all cases: cell-based or functional assay
[1] = biological target: Env of HIV isolate NKU3006.ec1 (clade D) (HIV)
[2] = biological target: HIV Env of isolate SO18.18 (HIV)
[3] = biological target: Env of HIV isolate Q842.d12 (clade A) (HIV)
[4] = biological target: Env of HIV isolate BR025.9 (clade C) (HIV)
[5] = biological target: HIV Env of isolate 6405.v4.c34 (HIV)
[6] = biological target: Env of HIV isolate Q168.a2 (clade AD) (HIV)
[7] = biological target: Env of HIV isolate KER2008.12 (clade A) (HIV)
[8] = biological target: HIV Env of isolate DU172.17 (HIV)
[9] = biological target: HIV Env of isolate ZM197.7 (HIV)
[10] = biological target: HIV Env of isolate 00836-2.5 (HIV)
[11] = biological target: Env of HIV isolate CNE3 (clade AE) (HIV)
[12] = biological target: Env of HIV isolate 242-14 (clade AG) (HIV)
[13] = biological target: Env of HIV isolate P0402.c2.11 (clade G) (HIV)
[14] = biological target: Env of HIV isolate CH038.12 (clade BC) (HIV)
[15] = biological target: Env of HIV isolate 426c (clade C) (HIV)
[16] = biological target: Env of HIV isolate DJ263.8 (clade AG) (HIV)
[17] = biological target: Env of HIV isolate BG505.W6M.C2 (clade A) (HIV)
[18] = biological target: Env of HIV isolate X1254.c3 (clade G) (HIV)
[19] = biological target: Env of HIV isolate A07412M1.vrc12 (clade D) (HIV)
[20] = biological target: HIV Env of isolate UG021.16 (HIV)
[21] = biological target: HIV Env of isolate 3817.v2.c59 (HIV)
[22] = biological target: HIV Env of isolate ZM176.66 (HIV)
[23] = biological target: Env of HIV isolate REJO.67 (clade B) (HIV)
[24] = biological target: Env of HIV isolate CH070.1 (clade BC) (HIV)
Envelope of SVA.MLV = biological target: Envelope of SVA.MLV
[25] = biological target: 208-member cross-clade virus panel
[26] = biological target: HIV Env of isolate ZM55.28a (HIV)
[27] = biological target: HIV Env of isolate UG024.2 (HIV)
[28] = biological target: Env of HIV isolate CNE31 (clade C) (HIV)
[29] = biological target: Env of HIV isolate JRCSF.JB (clade B) (HIV)
[30] = biological target: Env of HIV isolate 271-11 (clade AG) (HIV)
[31] = biological target: HIV Env of isolate 26191-2.48 (HIV)
[32] = biological target: Env of HIV isolate R3265.c6 (clade AE) (HIV)
[33] = biological target: Env of HIV isolate 16936-2.21 (clade C) (HIV)
[34] = biological target: HIV Env of isolate TZBD.02 (HIV)
[35] = biological target: HIV Env of isolate 3337.v2.c6 (HIV)
[36] = biological target: HIV Env of isolate 0921.v2.c14 (HIV)
[37] = biological target: Env of HIV isolate CE703010217.B6 (clade C) (HIV)
[38] = biological target: Env of HIV isolate Ce1176.A3 (clade C) (HIV)
[39] = biological target: Env of HIV isolate 928-28 (clade AG) (HIV)
[40] = biological target: HIV Env of isolate CAP210.E8 (HIV)
[41] = biological target: HIV Env of isolate BR025.9 (HIV)
[42] = biological target: HIV Env of isolate 191821.E6.1 (HIV)

B1: ePGT121.18.17 (ePGT121.18.H17 VH and ePGT121.17.L1 VL) (antibody, V domains shown)
VH: QMQLQESGPGLVKPGETLSLTCSVSGASISSSYWSWLRETPGKGLEWIGYTHHSGDTNYAPSLKSRVTIGLDPSKNQVSLSLTSVTAADTAVYYCARTLHGRRIYGVVAFNEYYTYFYWPTWGKGTQVTVSS
VL: SDISVAPGETVRITCGGESIGSRAVQWYQHRPGQAPRLIIYNNQDRPPGIPERFSGSPDIDFGTTATLTISNVEAGDEATYYCHIWDSRRPTNWELGPGTTLTVL
- IC50, pseudovirus neutralization [1]: > 50 mg/L
- IC80, pseudovirus neutralization [2]: 0.011 mg/L
- IC50, pseudovirus neutralization [3]: 0.007 mg/L
- IC50, pseudovirus neutralization [4]: 0.003 mg/L
- IC80, pseudovirus neutralization [5]: 0.012 mg/L
- IC50, pseudovirus neutralization [6]: 1.52 mg/L
- IC50, pseudovirus neutralization [7]: 0.01 mg/L
- IC80, pseudovirus neutralization [8]: 0.018 mg/L
- IC80, pseudovirus neutralization [9]: > 50 mg/L
- IC80, pseudovirus neutralization [10]: > 50 mg/L
- IC50, pseudovirus neutralization [11]: > 50 mg/L
- IC50, pseudovirus neutralization [12]: > 50 mg/L
- IC50, pseudovirus neutralization [13]: 0.004 mg/L
- IC50, pseudovirus neutralization [14]: 0.002 mg/L
- IC50, pseudovirus neutralization [15]: 0.26 mg/L
- IC50, pseudovirus neutralization [16]: 0.014 mg/L
- IC50, pseudovirus neutralization [17]: 0.047 mg/L
- IC50, pseudovirus neutralization [18]: 0.006 mg/L
- IC50, pseudovirus neutralization [19]: 0.004 mg/L
- IC80, pseudovirus neutralization [20]: 0.078 mg/L
- IC80, pseudovirus neutralization [21]: 17.9 mg/L
- IC80, pseudovirus neutralization [22]: 0.454 mg/L
- IC50, pseudovirus neutralization [23]: 1.43 mg/L
- IC50, pseudovirus neutralization [24]: 0.003 mg/L
- IC80, pseudovirus neutralization (Envelope of SVA.MLV): > 50 mg/L
- % vs Neutralized, IC50 < 0.01 ug/ml [25]: 40%
- % vs Neutralized, IC50 < 0.1 ug/ml [25]: 61%
- % vs Neutralized, IC50 < 1.0 ug/ml [25]: 69%
- % vs Neutralized, IC50 < 10 ug/ml [25]: 74%
- % vs Neutralized, IC50 < 50 ug/ml [25]: 76%
- % vs Neutralized, IC80 < 0.01 ug/ml [25]: 14.4%
- % vs Neutralized, IC80 < 0.1 ug/ml [25]: 53.4%
- % vs Neutralized, IC80 < 1.0 ug/ml [25]: 63.5%
- % vs Neutralized, IC80 < 10 ug/ml [25]: 67.8%
- % vs Neutralized, IC80 < 50 ug/ml [25]: 70.7%
- Geometric Mean (IC50) [25]: 0.0202 mg/L
- Geometric Mean IC80 [25]: 0.0443 mg/L
- Median IC50 [25]: 0.009 mg/L
- Median IC80 [25]: 0.02 mg/L
- Total VS Neutralized, IC50 < 0.01 ug/ml (viruses of 208) [25]: 83
- Total VS Neutralized, IC50 < 0.1 ug/ml (viruses of 208) [25]: 126
- Total VS Neutralized, IC50 < 1.0 ug/ml (viruses of 208) [25]: 143
- Total VS Neutralized, IC50 < 10 ug/ml (viruses of 208) [25]: 154
- Total VS Neutralized, IC50 < 50 ug/ml (viruses of 208) [25]: 158
- Total VS Neutralized, IC80 < 0.01 ug/ml (viruses of 208) [25]: 30
- Total VS Neutralized, IC80 < 0.1 ug/ml (viruses of 208) [25]: 111
- Total VS Neutralized, IC80 < 1.0 ug/ml (viruses of 208) [25]: 132
- Total VS Neutralized, IC80 < 10 ug/ml (viruses of 208) [25]: 141
- Total VS Neutralized, IC80 < 50 ug/ml (viruses of 208) [25]: 147
- IC80, pseudovirus neutralization [26]: 0.029 mg/L
- IC80, pseudovirus neutralization [27]: > 50 mg/L
- IC50, pseudovirus neutralization [28]: 0.089 mg/L
- IC50, pseudovirus neutralization [29]: 0.007 mg/L
- IC50, pseudovirus neutralization [30]: > 50 mg/L
- IC80, pseudovirus neutralization [31]: 0.025 mg/L
- IC50, pseudovirus neutralization [32]: > 50 mg/L
- IC50, pseudovirus neutralization [33]: 0.004 mg/L
- IC80, pseudovirus neutralization [34]: 0.013 mg/L
- IC80, pseudovirus neutralization [35]: 1.34 mg/L
- IC80, pseudovirus neutralization [36]: 3.48 mg/L
- IC50, pseudovirus neutralization [37]: 0.005 mg/L
- IC50, pseudovirus neutralization [38]: 0.008 mg/L
- IC50, pseudovirus neutralization [39]: 0.462 mg/L
- IC80, pseudovirus neutralization [40]: 0.645 mg/L
- IC80, pseudovirus neutralization [41]: 0.008 mg/L
- IC80, pseudovirus neutralization [42]: 0.727 mg/L

B2: ePGT121.15 (ePGT121.15.H6 VH and ePGT121.15.L1 VL) (antibody, V domains shown)
VH: B1 VH with T68H, I69L, D72H, Y113F, Y114F, P120E, T121V
VL: B1 VL with T14S, P32A, R37K, S71T, E95V, L96F, P98G
- IC50, pseudovirus neutralization [1]: > 50 mg/L
- IC80, pseudovirus neutralization [2]: 0.009 mg/L
- IC50, pseudovirus neutralization [3]: 0.003 mg/L
- IC50, pseudovirus neutralization [4]: 0.002 mg/L
- IC80, pseudovirus neutralization [5]: 0.009 mg/L
- IC50, pseudovirus neutralization [6]: 5.07 mg/L
- IC50, pseudovirus neutralization [7]: 0.01 mg/L
- IC80, pseudovirus neutralization [8]: 0.007 mg/L
- IC80, pseudovirus neutralization [9]: > 50 mg/L
- IC80, pseudovirus neutralization [10]: > 50 mg/L
- IC50, pseudovirus neutralization [11]: > 50 mg/L
- IC50, pseudovirus neutralization [12]: 42.8 mg/L
- IC50, pseudovirus neutralization [13]: 0.004 mg/L
- IC50, pseudovirus neutralization [14]: 0.001 mg/L
- IC50, pseudovirus neutralization [15]: 0.385 mg/L
- IC50, pseudovirus neutralization [16]: 0.013 mg/L
- IC50, pseudovirus neutralization [17]: 0.066 mg/L
- IC50, pseudovirus neutralization [18]: 0.004 mg/L
- IC50, pseudovirus neutralization [19]: 0.005 mg/L
- IC80, pseudovirus neutralization [20]: 0.022 mg/L
- IC80, pseudovirus neutralization [21]: 7.22 mg/L
- IC80, pseudovirus neutralization [22]: 0.31 mg/L
- IC50, pseudovirus neutralization [23]: 1.46 mg/L
- IC50, pseudovirus neutralization [24]: 0.001 mg/L
- IC80, pseudovirus neutralization (Envelope of SVA.MLV): > 50 mg/L
- % vs Neutralized, IC50 < 0.01 ug/ml [25]: 49%
- % vs Neutralized, IC50 < 0.1 ug/ml [25]: 63%
- % vs Neutralized, IC50 < 1.0 ug/ml [25]: 70%
- % vs Neutralized, IC50 < 10 ug/ml [25]: 75%
- % vs Neutralized, IC50 < 50 ug/ml [25]: 77%
- % vs Neutralized, IC80 < 0.01 ug/ml [25]: 26.9%
- % vs Neutralized, IC80 < 0.1 ug/ml [25]: 56.2%
- % vs Neutralized, IC80 < 1.0 ug/ml [25]: 63.5%
- % vs Neutralized, IC80 < 10 ug/ml [25]: 70.2%
- % vs Neutralized, IC80 < 50 ug/ml [25]: 72.6%
- Geometric Mean (IC50) [25]: 0.0148 mg/L
- Geometric Mean IC80 [25]: 0.0351 mg/L
- Median IC50 [25]: 0.0055 mg/L
- Median IC80 [25]: 0.015 mg/L
- Total VS Neutralized, IC50 < 0.01 ug/ml (viruses of 208) [25]: 101
- Total VS Neutralized, IC50 < 0.1 ug/ml (viruses of 208) [25]: 130
- Total VS Neutralized, IC50 < 1.0 ug/ml (viruses of 208) [25]: 145
- Total VS Neutralized, IC50 < 10 ug/ml (viruses of 208) [25]: 156
- Total VS Neutralized, IC50 < 50 ug/ml (viruses of 208) [25]: 160
- Total VS Neutralized, IC80 < 0.01 ug/ml (viruses of 208) [25]: 56
- Total VS Neutralized, IC80 < 0.1 ug/ml (viruses of 208) [25]: 117
- Total VS Neutralized, IC80 < 1.0 ug/ml (viruses of 208) [25]: 132
- Total VS Neutralized, IC80 < 10 ug/ml (viruses of 208) [25]: 146
- Total VS Neutralized, IC80 < 50 ug/ml (viruses of 208) [25]: 151
- IC80, pseudovirus neutralization [26]: 0.029 mg/L
- IC80, pseudovirus neutralization [27]: 4.72 mg/L
- IC50, pseudovirus neutralization [28]: 0.042 mg/L
- IC50, pseudovirus neutralization [29]: 0.008 mg/L
- IC50, pseudovirus neutralization [30]: > 50 mg/L
- IC80, pseudovirus neutralization [31]: 0.015 mg/L
- IC50, pseudovirus neutralization [32]: > 50 mg/L
- IC50, pseudovirus neutralization [33]: 0.003 mg/L
- IC80, pseudovirus neutralization [34]: 0.007 mg/L
- IC80, pseudovirus neutralization [35]: 2.63 mg/L
- IC80, pseudovirus neutralization [36]: 5.71 mg/L
- IC50, pseudovirus neutralization [37]: 0.004 mg/L
- IC50, pseudovirus neutralization [38]: 0.003 mg/L
- IC50, pseudovirus neutralization [39]: 0.161 mg/L
- IC80, pseudovirus neutralization [40]: 0.268 mg/L
- IC80, pseudovirus neutralization [41]: 0.006 mg/L
- IC80, pseudovirus neutralization [42]: 3 mg/L
